Series [1] in a line: Pharmacokinetics of PAF-AH in rat circulation (double mAb capture ELISA). The note with it: 2000 U IV, mean ± SEM. The format is in vivo. The procedure: Four rats received 2000 U of PAF-AH by IV injection in a 300 μl volume. Plasma was collected at various time points and stored at 4° C. and plasma concentrations of PAF-AH were determined by ELISA using a double mAb capture assay. In brief, monoclonal antibody 90G11D (Example 13) was diluted in 50 mM carbonate buffer pH 9.6 at 100 ng/ml and immobilized on Immulon 4 ELISA plates overnight at 4° C. After extensive washing with PBS containing 0.05% Tween 20, the plates were blocked for 1 hour at room temperature with 0.5% fish skin gelatin (Sigma) diluted in PBS. Serum samples diluted in PBS with 15 mM CHAPS were added in duplicate to the washed ELISA plate and incubated for 1 hour at room temperature. After washing, a biotin conjugate of monoclonal antibody 90F2D (Example 13) was added to the wells at a concentration of 5 μg/ml diluted in PBS and incubated for 1 hour at room temperature. After washing, 50 μl of a 1:1000 dilution of ExtraAvidin (Sigma) was added to the wells and incubated for 1 hour at room temperature. After washing, wells were developed using OPD as a substrate and quantitated. Enzyme activity was then calculated from a standard curve. […]
(ELISA stands for enzyme-linked immunosorbent assay.)

Series [2] relates to PAF-induced necrotizing enterocolitis. The series is described as follows: Rat model of PAF-induced necrotizing enterocolitis (NEC). The format is in vivo. The procedure: The small intestines were removed after 2 hours from the ligament of Trietz to the cecum, thoroughly washed with cold saline and examined grossly. Samples were obtained from microscopic examination from the upper, middle and lower portions of the small intestine. The tissues were fixed in buffered formalin and the sample processed for microscopic examination by staining with hematoxylin and eosin. The experiment was repeated three times.
(§1) In order to determine if the protection against NEC in rats was dose dependent, animals were treated with increasing doses of PAF-AH 15 minutes prior to PAF administration. Initially, PAF-AH, ranging from 25.5 to 25,500 units were administered into the tail vein of rats. PAF (0.4 μg in 0.2 ml of BSA-saline) was subsequently injected into the abdominal aorta 15 minutes after the administration of PAF-AH. The small intestine was removed and examined for NEC development 2 hours after PAF administration. Plasma PAF-AH activity was determined prior to the exogenous administration of the enzyme, and 15 minutes and 21/4 hours after PAF-AH administration. The results are the mean of 2-5 animals in each group.
In order to determine the length of time exogenous PAF-AH afforded protection against development of NEC, rats were injected once with a fixed amount of the enzyme via the tail vein and subsequently challenged with PAF at various time points. PAF-AH (8,500 units in 0.3 ml) or vehicle alone was administered into the tail vein of rats, and PAF (0.36 μg in 0.2 ml of BSA-saline) was injected into the abdominal aorta at the various times after the enzyme administration. The small intestines were removed 2 hours after the PAF injection for gross and histological examinations in order to evaluate for NEC development. Plasma PAF-AH activities were determined at various times after enzyme administration and two hours after PAF administration. The mean value±standard error for enzyme activity was determined for each group.
In order to determine if administration of PAF-AH was capable of reversing development of NEC induced by PAF injection, 25,500 units of enzyme was administered via injection into the vena cava two minutes following PAF administration (0.4 μg).

The nature of series [3]: Plasma PAF-AH activity in rats of the NEC experiments. The format is in vivo, rat. The procedure: The plasma PAF-AH activities were also determined in the rats utilized in the experiment described above. PAF-AH activity was determined as follows. Prior to the tail vein injection, blood samples were obtained. Subsequently blood samples were obtained from the vena cava just prior to the injection of PAF and at the time of sacrifice. Approximately 50 μl of blood was collected in heparinized capillaries. The plasma was obtained following centrifugation (980×g for 5 minutes). The enzyme was assayed as previously described by Yasuda and Johnston, Endocrinology, 130:708-716 (1992).
as §1

In a further series the test system is PAF mediated lung injury. The series is described as follows: Guinea pig model of ARDS (PAF infusion, BAL protein). The format is in vivo. The procedure: Based on the above observations, an ARDS model in guinea pigs was developed. A cannula is placed into the jugular vein of anaesthetized male Hartly guinea pigs (approximately 350-400 grams) and PAF diluted in a 500 μl volume of phosphate buffered saline with 0.25% bovine serum albumin as a carrier (PBS-BSA) is infused over a 15 minute period of time at a total dosage ranging from 100-400 ng/kg. At various intervals following PAF infusion, animals are sacrificed and lung tissue is collected. In guinea pigs infused with PAF, dose dependent lung damage and inflammation is clearly evident by 15 minutes and continues to be present at 60 minutes. Neutrophils and red blood cells are present in the alveolar spaces of PAF treated guinea pigs but absent in control or sham infused animals. Evidence of epithelial cell damage is also evident and reminiscent of hyaline membrane formation in human ARDS patients.
Groups of guinea pigs were pretreated with either PAF-AH (2000 units in 500 μl) or 500 μl of the PAF-AH buffer only. Fifteen minutes later these guinea pigs were infused with 400 ng/kg PAF in a 500 μl volume, infused over a 15 minute period. In addition, a sham group of guinea pigs was infused with 500 μl of PBS-BSA. […] To determine protein concentration in the BAL, samples were diluted 1:10 in saline and the OD 280 was determined.

The mark [4] stands for this setting: 25,500 units IV, 21/4 hours after injection.

Where only a bound is given, the exact number is not on record here.

B1: PAF-AH: Recombinant human plasma platelet-activating factor acetylhydrolase (beginning at Ile42 of SEQ ID NO:8) expressed in E. coli (protein, UniProt Q13093 22-441, looked up)
Platelet-activating factor …: FDWQYINPVAHMKSSAWVNKIQVLMAAASFGQTKIPRGNGPYSVGCTDLMFDHTNKGTFLRLYYPSQDNDRLDTLWIPNKEYFWGLSKFLGTHWLMGNILRLLFGSMTTPANWNSPLRPGEKYPLVVFSHGLGAFRTLYSAIGIDLASHGFIVAAVEHRDRSASATYYFKDQSAAEIGDKSWLYLRTLKQEEETHIRNEQVRQRAKECSQALSLILDIDHGKPVKNALDLKFDMEQLKDSIDREKIAVIGHSFGGATVIQTLSEDQRFRCGIALDAWMFPLGDEVYSRIPQPLFFINSEYFQYPANIIKMKKCYSPDKERKMITIRGSVHQNFADFTFATGKIIGHMLKLKGDIDSNVAIDLSNKASLAFLQKHLGLHKDFDQWDCLIEGDDENLIPGTNINTTNQHIMLQNSSGIEKYN
Consider B1, for which the “plasma enzyme level at one hour” value in series [1] was found to be 374 U/ml. In series [2] (8,500 units IV once), the “NEC development, PAF challenge within the first eight hours after injection” value was “none of the rats developed NEC”; the “animals developing NEC, PAF challenge at 24 and 48 hours after injection” value is given as 100%. For the same molecule, in series [2] (25,500 units IV followed by PAF injection), the “protection against NEC” value is “completely protected”. Moreover, the “gross findings of bowel, PAF-AH in the absence of PAF” value in series [2] (25,500 units IV, no PAF) is recorded as “no effect on the gross findings”. Moreover, the “NEC development, enzyme given 15 minutes after PAF” value in series [2] (25,500 units into vena cava) is “all animals developed NEC”. Also, in series [2] (25,500 units into vena cava, PAF 0.4 μg), the “NEC development, enzyme given two minutes following PAF” value is recorded as “None of the animals developed NEC”. For the same molecule, the “gross findings of bowel” value in series [2] (25,500 units via tail vein 15 minutes prior to PAF into aorta) is recorded as “the bowel appeared to be normal”. Moreover, the “lowest protective amount of enzyme against NEC” value in series [2] (IV 15 minutes prior to PAF 0.4 μg) is 2040 units. Further, the “NEC development at low doses” value in series [2] (less than 2,000 units of the enzyme) was “developed NEC”. Also, in series [3] (2040 units IV), the “plasma PAF-AH activity after 15 minutes” value was 363 units per ml of plasma. Besides, the “increase of plasma PAF-AH activity over basal levels” value in series [3] (2040 units IV, 15 minutes) is recorded as “five-fold increase over basal levels”. The “plasma PAF-AH activity at time of sacrifice, groups 2 and 4” value in series [3] (25,500 units IV, 21/4 hours after PAF-AH injection) was found to be 1855±257 units. In series [3] (setting [4]), the “plasma PAF-AH activity at time of sacrifice, Group 2” value is listed as 1771±308 and the “plasma PAF-AH activity at time of sacrifice, Group 4” value worked out at 1939±478. Also, the “plasma PAF-AH activity after 15 minutes, group 2” value in series [3] (25,500 units IV, BSA-saline group) is on record as 2249±341 units (1 unit equals 1 nmoles×min^-1 ×ml^-1 plasma). For the same molecule, in series [3] (25,500 units IV, PAF group), the “plasma PAF-AH activity after 15 minutes, group 4” value is 2494±623 units (1 unit equals 1 nmoles×min^-1 ×ml^-1 plasma). The “resultant plasma enzyme activity” value in series [3] (less than 1,020 total units administered) was not above 160. For the same molecule, the “BAL fluid protein concentration” value in the series on PAF mediated lung injury (2000 units 15 minutes before 400 ng/kg PAF infusion) came to 1.13 ± 0.25 mg/mL. Moreover, the “protection against PAF mediated lung injury” value in the series with PAF mediated lung injury (2000 units pretreatment) is given as “completely protect”.

The record behind these values is patent US5847088A, “Antibodies specific for platelet-activating factor acetylhydrolase” (ICOS Corporation, priority 1995, dated 1998).
